Test results as given in patent US20260356982 (published 2026).
Positions count from the first letter of the chain named.

T1: FLAG tag
T1 chain: DYKDDDDK

B1: V7 scFv (antibody, V domains shown)
VH: QVQLVQSGAEVKKPGASVKVSCKASGYSFTTYTMHWVRQAPGQGLEWMGYINPSSGYAAYNQKFQGRVTMTADKSTSTAYMELSSLRSEDTAVYYCAREKFYGYDYWGQGTTVTVSS
VL: DVVMTQSPDSLAVSLGERATINCKSSQSIVHRNGNTYLEWYQLKPGQPPKLLIYKVSNRFSGVPDRFSGSGSGTDFTLTISSLQAEDVAVYYCFQGSHVPYTFGGGTKLEIK
B2: V4 scFv (antibody, V domains shown)
VH: B1 VH with M34I, M48I, M70L
VL: B1 VL with L43Q
B3: V3 scFv (antibody, V domains shown)
VH: B1 VH with M34I, M48I, M70L
VL: B1 VL
B4: V7 IgG (antibody, V domains shown)
VH: B1 VH
VL: B1 VL
B5: Parental (mouse VH/VL, human constant regions) (antibody, V domains shown)
VH: QVQLQQSAGELARPGASVKMSCKASGYSFTTYTIHWVKQRPGQGLEWIGYINPSSGYAAYNQNFKDETTLTADKSSSTAYMQLSSLTSEDSAVYYCAREKFYGYDYWGQGTTLTVSS
VL: DVLMTQLPLSLPVSLGDQASISCRSSQSIVHRNGNTYLEWYLLKPGQSPKLLIYKVSNRFSGVPDRFSGSGSGTDFTLKISRVEAEDLGVYYCFQGSHVPYTFGGGTKLEIK
B6: V3 IgG (antibody, V domains shown)
VH: B1 VH with M34I, M48I, M70L
VL: B1 VL
B7: V4 IgG (antibody, V domains shown)
VH: B1 VH with M34I, M48I, M70L
VL: B1 VL with L43Q

Target: T1, FLAG tag
Assay: SPR

Point of comparison: B1, Kd 15 nM. Against it:
- B2 — within 1.5-fold, 22 nM
- B3 — within 1.5-fold, 19 nM

Target: T1, FLAG tag
Assay: SPR bivalent

Point of comparison: B5, Kd 0.96 nM. Against it:
- B4 — within 1.5-fold, 1.3 nM
- B6 — within 1.5-fold, 1 nM
- B7 — within 1.5-fold, 0.91 nM
